From publication doi:10.1101/2022.04.29.490116
Where two headings read alike, the source gives them in different places.

What was measured:
[1] = target: StbA of plasmid R388, full length, C-terminally (His)6-tagged (enterobacterial plasmid R388); assay: SEC
StbA [2] = target: T1, StbA (Escherichia coli plasmid R388, UniProt Q6I6C4 1-141); assay: EMSA
T1 sequence: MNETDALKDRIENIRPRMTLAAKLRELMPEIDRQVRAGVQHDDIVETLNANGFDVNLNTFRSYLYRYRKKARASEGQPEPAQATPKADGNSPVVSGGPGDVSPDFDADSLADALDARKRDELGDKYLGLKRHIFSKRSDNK

StbA1-75 [3] = target: T2, StbA1-75 (Escherichia coli plasmid R388, UniProt Q6I6C4 1-75); assay: EMSA
T2 sequence: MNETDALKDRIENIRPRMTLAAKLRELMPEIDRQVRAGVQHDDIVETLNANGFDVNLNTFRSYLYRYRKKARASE

StbA [4] = target: T1, StbA; assay: EMSA; remark: listed apart in the source
StbA [5] = target: T1, StbA; assay: EMSA; remark: listed apart in the source
StbA1-75 [6] = target: T2, StbA1-75; assay: EMSA; remark: listed apart in the source
StbA [7] = target: T1, StbA; assay: EMSA; remark: listed apart in the source
StbA [8] = target: T1, StbA; assay: EMSA; remark: listed apart in the source
StbA [9] = target: T1, StbA; assay: EMSA; remark: listed apart in the source
StbA1-75 [10] = target: T2, StbA1-75; assay: EMSA; remark: listed apart in the source

“StbA of plasmid R388, full length, C-terminally (His)6-tagged (natural protein)” gave a stoichiometry N [1] of 2.

B1: stb5b (dsDNA)
DNA 1: TTGCCTGCATCATAGCTGTCCTATGACTGCATCACATTTGCATCATACATGCATTATTTC
DNA 2: GAAATAATGCATGTATGATGCAAATGTGATGCAGTCATAGGACAGCTATGATGCAGGCAA
B1: binds (StbA [2]).

B2: stb5a (dsDNA)
DNA 1: CCGTTTTAGCTCATTTTCTGCATCATTGTAGCACCATCATAGCATTATAGTTGCATCATTGCTGCACGATAACCCAATGC
DNA 2: GCATTGGGTTATCGTGCAGCAATGATGCAACTATAATGCTATGATGGTGCTACAATGATGCAGAAAATGAGCTAAAACGG
B2: binds (StbA1-75 [3]); binds (StbA [4]).

B3: stb0 (dsDNA)
DNA 1: CCTTAAACGGCCTATTGTTTCCAAGCGGAGTGACAACAAATGAAAGTAGCTGTGCTTAAGTATTCAACAAAGCCGCCGTC
DNA 2: GACGGCGGCTTTGTTGAATACTTAAGCACAGCTACTTTCATTTGTTGTCACTCCGCTTGGAAACAATAGGCCGTTTAAGG
B3: no binding (StbA [5]).

B4: stb2 (dsDNA)
DNA 1: CCGTTCTAGCTCATTCTGTTCTTGCTTGCTGCATCATCACTGCATCATCCCAATGCCGATCTAGCTCATTACTGTTCTAT
DNA 2: ATAGAACAGTAATGAGCTAGATCGGCATTGGGATGATGCAGTGATGATGCAGCAAGCAAGAACAGAATGAGCTAGAACGG
B4: binds (StbA1-75 [6]); binds (StbA [7]).

B5: stb5 (dsDNA)
DNA 1: TCTGTTCTTGCTTGCTGCATCATCACTGCATCATCACTGCATCATCACTGCATCATCACTGCATCATATGCCGATCTAGC
DNA 2: GCTAGATCGGCATATGATGCAGTGATGATGCAGTGATGATGCAGTGATGATGCAGTGATGATGCAGCAAGCAAGAACAGA
B5: binds (StbA [8]).

B6: stb3 (dsDNA)
DNA 1: TAGCTCATTCTGTTCTTGCTTGCTGCATCATCACTGCATCATAGCTGCATCATCAATGCCGATCTAGCTCATTACTGTTC
DNA 2: GAACAGTAATGAGCTAGATCGGCATTGATGATGCAGCTATGATGCAGTGATGATGCAGCAAGCAAGAACAGAATGAGCTA
B6: binds (StbA [9]); binds (StbA1-75 [10]).
